This data set in a line: protease stability score; higher = more stable; yeast display proteolysis, trypsin and chymotrypsin.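 Note: relative to predicted unfolded state with 0 unfolded-like and 1 meaning tenfold more protease.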
“HEDEKEAEDAVREFLHNVSTGDEERMLELMDPNARLIYNGREYHGRELITHLIRELGVKVVRWRHLEVQGEKVHVDLRDTVGDKTIKTHLIFHKINGKWKVDEVKFD” had a protease stability score of 2.26.

Sequence “SEDEENIRRIIRRFVHTFETGDEDIMRELADPHVRLIFNGQHYIGREWVVEIMSEHVKRADHTEVHIHEIHIIGDKVKVHSRLHINVDGVFRNIELRIDIMKVNGRWLIHHVEFR” had a protease stability score of 1.48.

Sequence “TEEHDEAHEVLKIFLEIHETGDEDDMKRLADPHARLNIGDKEYHGWKHFIEWLHKIKNVTSEIHHVHVYNGKVKTEVDLHVNGQDVKIILIMEKINGRWILQSVEVR” displayed a protease stability score of 1.29.

Consider “DEEESIERELSRRWLHWFITGDEERAKKLADPRARYHQGDKEIHGWDNLRKFLFEILEKIPNLRIIIRDSDVINGRIHYDTELHIDGVHIKTHLIIVIVDGRLKELHVEEH”, for which the protease stability score turned out to be 0.06.

As for “DEDTEQAERVSHIMLHLYHTGDEEKFNHLADPNVRVEVNGVEIIGRHAFMKHLREIRLHDLRIEEVHIRVFNGRLRIEIKGRMDGHFNGVTKRTEVDILIIVLKVDGRWHVHSFSETIH”, the protease stability score was determined as 1.6.

With “EEDKDWAEWAMRLFVELLFTGDEERLNHFLDPHVRVEFNGRDLHGREMLEKLLELMGIDHIQFKHIELRVIDGQVHLHIDGFADIDGRTHRIRIHMHFEKINGKWRFHSVKFEHK”, the protease stability score worked out at 1.39.

Consider “SDEHERLKRFAEEWIRAVITGDFDRLYELMDPHARYHQGDKNHHGRDQIRHFLHRFKNIRIDYHRIELIGDKVHMDGWINYDGKEVETKITVHVIDGRVHIIHVWEI”, for which the protease stability score turned out to be 1.39.

“SEVEEEMTRIADILLRVTKTGDWEEMRDLIDPDARMIIDIDGREHINVGREDLARSLKRLRDHLGVKVWDYHHISVIGDKIHIETQQRFNGQDVTTRNEWTVINGKLKEMRLIIH” displayed a protease stability score of 2.02.

“DELHHVLEIMLRELITAWRTGDERVLNELFDPHVLIVIGDKYYHGREFVTRWLRHIRIKHSEFHLRRIHIQGDYVHITGEFRIEGEFDGRENTVTHDSKIVTLKIDGRWTFHSIVLE” gave a protease stability score of 2.16.

“DEIHKDAKEFTKRFIDSLHTGDWKELLEMFDPHTRIVVGDKEFIGMDEILRFERELGIEKVDYHLKHVEIRVQGEKADIHITGEIRFNGQTVDRELNIHARKIDGRWKVDEVNLDRR” returned a protease stability score of 1.88.

As to “SEEEELAMRIAREVLELWYTGDEDRLTELADPNTRVIFQYGDKEISFHGREWYSKIMLEWRIERVDLRSERAIGDKYELDVHFVGHINGKRHNYRFHIHMLVVNGKLKNIEVRVK”, the protease stability score came to 2.2.

Sequence “SEEDKHHETLARLIIEALTTGDEESLMHLMDPNARIQIGDKDNHGWRSLHIHHRELGIDHKEIRVREVRFVNGKIHIDSQVHFHFNGVTFDVRTHIILVVINGKLTKMWVIIG” showed a protease stability score of 0.363.

“DEEQNHFFESIKELTHSWRTGDEERVTKLADPNVRLEINGRDIVGMERFSKLMIELRVHDLKIHRIRVVNGKVESDIEMHIHQGDKHSVTETHIFARKVDGKWILESIRIG”: the protease stability score turned out to be 1.07.

Sequence “SEEEEEMRFFMEVWIHDLRTGDFESLHKNADPRTRVEINGVELHGREHFTEWAERIKGAKFEVKDFKIQGDKVILHGKFSVNGVEHEMTVIFLKVNGRWLQESMTLK” gave a protease stability score of 0.603.

Turning to “DEREELSKHITERFIRSVQTGDERVLKELIDPHARVIVDGRRFIGRHVWVKILKDLGIDHLEIEHVDLIGDKARIDSRVDVDGQEHNVKIHLEVINGRIHWIEERIK”, the protease stability score was 1.04.

“SELDEDFRHMVELFAFHMLTGDEHEVHRLADPHYRYEQGDKNIIGRDEWIRFLREIRIHVNSIHIRRLDYVGDKIEADVHFDVLIHVNGVRIRHRHDSHLFWEKVDGRWVLHSVRVL”: the protease stability score was 1.36.

On to “HEIDEWSEEWKHELIHNLRTGDEHRLKELADPHTRIIIDGREIHGMDFALKLIHKRVMEMRHKEFHIRRIDHQGEKIVMDVEVRVNFNGREDSVNFRIISEKFNGRWIIHYITLI”, for which the protease stability score is 1.49.

In the case of “DEEDEITDRLAKLLQHAYHTGDWKLWLNLADPHVRVDFNGVEIHGREEITDWFRKHYRDLGVTRFEVHVHHIHNIGDKIVQETHLLVNGRTFRTEVTIIVINGRVKSEHVNLR”, the protease stability score was 0.848.

As for “SDHEHMILHYARHVLELWFTGDWEIFEKLADPRAKMTVNGQELHGRESVSKWMHDKKEEIRMRDLRIHHIDVQGDFVILHLRVDFEVNGQRIDTHIEIYILVVNGQLREIEIREK”, the protease stability score turned out to be 0.853.

For the sequence “DEDEEAAEKMTELFRKSIKTGDEDLLTRLIDPHVRVDVNGRDIHGRESYFHELRNLGITNVEMQLKSRDVIGDKVHIDGTNRFNGRNHKVIIIVLKFNGRWVIEEIRIH”, the protease stability score is -0.045.

“SEEEEHLLKWFEELITLLLTGDEDRLSELMDPNVRIEIGDKTLVGMEWANHDYTRKIRERGWRIEIIIRELRAQGDKVRARTELRIRFDGREITYETEMILVVVNGRFKRIETRVH” showed a protease stability score of 1.46.

Turning to “EEEERESEEKFRLLLELLRTGDEEILKHMADPNTKIVINGVDLHGWKEWHRIMRRFKNVTIRFKELWVYGDKAQARVEFDIDGKSFEMELHFVVINGRLKSIHVHSH”, the protease stability score stood at 2.11.

The sequence “DEDTEQVERALHLWVKLVQTGNEEVIRHLLDPNVRIIVNGVDYHGRSALDELQRRVDVNTWKRVRLHDASVYNGRMHIDGEIDTQEIVGDKRIIIHTKVDMVSSKVNGKWIFHSMIFH” showed a protease stability score of 0.848.

Sequence “DEDEELLRRRADLFLKAYITGDENLLKRLADPDVLFDVNGRVFHGREHFITWLHRQLREFKNMRIHIRDIKHEVQGNFLHSEVDVTININGKEHWFILILIASKVDGKWIVEQIEIRFE” gave a protease stability score of 1.48.

Sequence “TKEEELAHRALHEWINDINTGNEEEFKELVDPNARMLVDGRHHHGREHVINVFIHLIRKVKNLTVDLDEIEIQGDKVTVIGILRVDGREIHITIHSRKINGRWHFEDIVWE” showed a protease stability score of 1.6.

“DEEERAMEHMVRHLVDDIHTGDWRSLYRFLDPDVRLHVGDKRFHGRDTIVRLLLELLQTWGIDRIHSEVKHVHLQGEKIEAHTKDKYGDFEFSVLVDIFKIDGKWVIERREIS” registered a protease stability score of 1.08.

The sequence “NEDERLIKEFWRLLQEALKTGNWEMIAELIDPHVRIDIGDKQIHGREEFIKLVDHIRFDDVKTELKTVHVFDGRVEVRGHLTVHKTFNGQKIDERTDVNLDIEKINGVWYMTYVRIE” yielded a protease stability score of 2.06.

Sequence “NERTEEIEEAMERMLEWWRTGNFEDINKNLDPNMRTHVFIDGREVLFHGRELMLEIFDRMGVDHIEVTHFDVIGNKVEVHSRSHQGDKHVDIKLVLEKIDGRWILSQIHIRIE” yielded a protease stability score of 1.94.

“DELEELLQRAIKMFKDTNETGDEETLEKLLDPNVRYQVGDKEFHGREAIHVIFRRADHWKEMRIRSFRVYDGRAELDVEEVIFYNGVEIRTRTRIHFRKVDGRWYVHSIEIS” displayed a protease stability score of 1.53.

Sequence “HEDEELSEKWLEDILRDHETGNEHRLRELFDPDARSHVGDKKIIGREDWSRALKEFIEKFPGVRIEIRHHENDIVGDKVRLDVTIILNFNGVEHEMKVTLILRKYNGRWRIREIRIR” gave a protease stability score of 1.25.

The sequence “SEEEETLRDALELVREVLETGDPHLSERLFDPDVRVIYGDKHYHGREYASEMIRFMGVKHFHIKSVRDVDGQVDIDTETHFNGKKYRMHLQTKKIDGKWHLRIIEFR” displayed a protease stability score of 1.39.

“DEDEEEVRKFLHLELRSMETGDEHDLRRLADPHVRIHINGVILHGWEFFLETFRKLGFDHLRIEHVEVQGEKVHIKSRFEIGDKSFETEIIIRKVDGRWYVESIIVN” gave a protease stability score of 0.873.

Consider “DEDEETITRTLEFQRESLRTGDWKFIHRLFDPDARFLINGRDRHGRDLLIDILRKLGVEKINLHVHRMSYVGDKMRVETELVVGDFIFDTRLFEEKVNGKWLMRSMEIH”, for which the protease stability score was determined as 0.735.

The sequence “SEDHELVHRFTHFFLRMYFTGDEKEMEDLLDPNTRILWNGKEFHGREEVIEALRYIRSHARIRDFTIHSFEIFDGRAKMDTREHGEIDGRLRTFTLRLHILKVNGRWQFQEIQIE” came in with a protease stability score of 2.12.
